Assay results reported in patent publication US5891661A, “Low temperature assay for active HCMV protease in dimeric form” (Merck & Co., Inc., priority 1997, dated 1999).

What was measured:
HCMV protease [1] = experiment: Kinetic assays of monomeric form; assay type: biochemical, human cytomegalovirus; details: ambient or higher temperatures
Protocol: For this reason, the activity of this protease has been erroneously believed to be very low. […] This physiochemical phenomenon is governed by thermodynamic principles. Due to the high activation energy required for dissociation, the HCMV protease can be "frozen" in its active, dimeric form at about 0° C., thus enabling sensitive detection of inhibitors of this enzyme. […] The existence of the HCMV protease has been reported, e.g., see Pinko, et al., J. Biol. Chem. 270, 23634 (1995). Assays for the catalytic activity of this enzyme have been described, albeit the reported kinetic parameters were substantially lower than those measured by applicants. […] This approach affords an assay for the activity of the protease at low concentration (≤20 nM), thus permitting detection of weak inhibitors or strong inhibitors at low concentration.

HCMV protease [2] = experiment: Activity assay of eluted size exclusion peaks at 0° C.; assay type: biochemical, human cytomegalovirus
Protocol: Assignment of the early (55 kDa) and late (33 kDa) elution peaks in FIG. 1 as dimer and monomer, respectively, allows the estimation of a Kd for dimerization. […] The maximum fraction of dimeric protease extrapolated from FIG. 2 is 0.92. In separate experiments using protease at a loading concentration of 100 mM, the maximum fraction of dimeric protease is more than or equal to 0.95. […] The same analysis applied to enzyme pre-equilibrated in 10% glycerol produces a […]

wild-type HCMV protease = experiment: Stability of purified wild-type enzyme at pH 5.5 and return of activity at pH 7.5; assay type: physicochemical, human cytomegalovirus
Protocol: The wild-type HCMV protease was purified similarly. To avoid self-proteolysis, the protein obtained from the first anion exchange step was folded and dialyzed as above, but in the absence of glycerol. The sample was then acidified to pH 5.5 with MES, applied to a cation exchange column in 50 mM MES, 1 mM EDTA, 1 mM DTT, pH 5.5, and eluted with a sodium chloride gradient. […] Enzyme preparations were greater than 95% pure by SDS PAGE and gave the expected amino acid analysis. The N-terminal 5 residues of both enzymes were MTMDE, showing retention but defonnylation of the initial N-formyl methionine. Electrospray mass spectrometry indicated a single species within 10 a.m.u. of the expected mass. The concentrations of stock enzyme solutions were determined by quantitative amino acid analysis.

HCMV protease [3] = experiment: Dependence of protease specific activity on temperature, enzyme and glycerol concentrations (dilution); assay type: biochemical, human cytomegalovirus
Protocol: Dependence of Protease Specific Activity on Enzyme and Glycerol Concentrations
Dilution of a concentrated solution of HCMV protease produces a time-dependent change in activity to a new, lower level. The rate and extent of the change in protease activity is a function of temperature. […] At temperatures above 20° C., the change in activity (t1/2 ≤30 min) upon enzyme dilution is such that an accurate assessment of activity requires a rapid assay (ca. 1 min).
The specific activity of the HCMV protease increases at higher enzyme and glycerol concentrations. […] It can be shifted back to the higher activity seen for 20% glycerol by addition of an equal volume of buffer containing 30% glycerol to produce a solution containing 20% glycerol, followed by further incubation. Thus, the dependence of HCMV protease activity on enzyme and glycerol concentrations is reversible.
The dependence of HCMV protease activity on enzyme concentration can be interpreted in terms of a monomer-dimer equilibrium wherein only the dimeric form of the enzyme is active.

HCMV protease [4] = experiment: Analytical centrifugation, velocity sedimentation of HCMV protease; assay type: physicochemical, human cytomegalovirus; details: 20 mM (monomer equivalents), 20° C.
Description: Analytical Centrifugation
The quaternary state of the HCMV protease was characterized by sedimentation velocity measurements. […] An approximate solution of the Lamm equation fits directly to the data to obtain the sedimentation coefficient, S20,w, the diffusion coefficient, D20,w, and by use of the Svedberg relation, the molecular weight. For both samples good fits are found for a single sedimenting species. In the absence of glycerol the molecular weight obtained is 29.7 kDa which is close to the molecular weight of a monomeric HCMV protease. […] The increase in S20,w and the decrease D20,w shown in Table 1 are both consistent with the existence of a stable dimeric protease in 20% glycerol.
^α Samples were loaded at 20 mM (monomer equivalents) and
sedimentation was conducted at 20° C. Data shown in brackets are
the 95% confidence limits.

Substance: monomer: late (33 kDa) elution peak of HCMV protease, monomeric form
- activity of monomeric form as gauged by kinetic assays (HCMV protease [1]): inactive
- activity in eluted monomer peak (HCMV protease [2]): no detectable activity

Substance: dimer: early (55 kDa) elution peak of HCMV protease, dimeric form
- hydrolytic activity in eluted dimer peak (HCMV protease [2]): more than 50 -fold of detectable levels

Substance: wild-type HCMV protease: recombinant wild-type HCMV protease
- return of activity following dilution (wild-type HCMV protease; dilution from pH 5.5 to pH 7.5): returned to full activity
- stability of wild-type enzyme (wild-type HCMV protease; pH 5.5): stable at pH 5.5

Substance: HCMV protease: N-terminal 256 amino acid protease domain of HCMV strain AD169, recombinantly expressed in E. coli
- change in protease activity upon dilution (HCMV protease [3]; 0° C.): no significant change is observable for a period of hours
- time for active form of the enzyme to reach equilibrium after dilution (HCMV protease [3]; 10% and 20% glycerol samples): ≤ 1.5 h
- activity in 10% glycerol compared with 20% glycerol (HCMV protease [3]; 10% vs 20% glycerol (v/v)): lower than that incubated in 20% glycerol
- decrease in protease activity upon dilution (HCMV protease [3]; 37° C.): occurs within minutes
- specific activity as enzyme concentration is lowered (HCMV protease [3]; after dilution, incubations of 1.5 hr and 3.5 hr): tends toward zero as its concentration is lowered
- t1/2 of change in activity upon enzyme dilution (HCMV protease [3]; temperatures above 20° C.): ≤ 30 min
- diffusion coefficient D20,w (HCMV protease [4]; 0% glycerol): 8.34 cm^2 10^7
- sedimentation coefficient S20,w (HCMV protease [4]; 0% glycerol): 2.78 S
- diffusion coefficient D20,w (HCMV protease [4]; 20% glycerol (v/v)): 6.57 cm^2 10^7
- sedimentation coefficient S20,w (HCMV protease [4]; 20% glycerol (v/v)): 3.59 S
